Laboratory results from patent US20040053276A1 (published 2004).
[ ]: non-standard residue; d: D form. pGlu = O=C1CC[C@@H](C(=O)O)N1

B1: human DRL90h-FLAG fusion protein, 7.1 kDa molecule cleaved at the furin cleavage site (other)
chain: [pGlu]DRPSKPGFPDEPMREYMHHLLALEHRAEEQFLEHWLNPHCKPHCDRNRIHPVVDYKDDDDK
modifications: also: a pair of intramolecular disulfide bonds
notes: C-terminal processing product of the COS-7 DRL90h-FLAG fusion; The FLAG tail is inferred from detection and purification with anti-FLAG antibody; also called major component of the human DRL90 gene product

Assays:
[1] = target: the molecule itself; assay: non-reducing versus reducing SDS-PAGE and anti-FLAG Western blot; disulfide-linked dimer (approx. 21 kDa)
Protocol: (§1) Transfection was carried out using 1 µg/well of the pDRL90h-FLAG DNA constructed in Example 3 and Effectene (Qiagen). Twenty-four hours after the transfection, the medium was replaced with serum-free DMEM medium supplemented with 1 ml of 0.1 mM pABSF (Wako Purechemical Industries) and 0.05% CHAPS (Dojin Chemical). Then, the cells were cultured further for 48 hr. The culture supernatant was transferred into Eppendorf sample tubes and centrifuged. After removal of floating cells, the supernatant was concentrated to about 1/10 in volume with Centricon YM-3 ultrafiltration membrane (Millipore). An equal volume of Tricine SDS-PAGE sample buffer (TEFCO) was added to the resultant concentrated culture supernatant. With respect to the cells, they were washed in 1 ml of PBS (Gibco BRL) twice and then 500 l of Tricine SDS-PAGE sample buffer was added thereto. […] After blocking the nitrocellulose filter with PBS containing 0.1% Tween 20 and 50% Block Ace (Snow Brand Milk Products), human DRL90-FLAG fusion protein was detected with antibodies. […] For luminescence, ECL Western Blotting Kit (Amersham Pharmacia Biotech) was used. Chemiluminescence was detected with Hyperfilm ECL (Amersham Pharmacia Biotech). […] The fusion protein in cell fractions was detected as a polypeptide of approx. 9.2 kDa under reducing conditions and as a polypeptide of approx. 21 kDa under non-reducing conditions.

[2] = target: B1; assay: non-reducing versus reducing SDS-PAGE and anti-FLAG Western blot; disulfide-linked dimer of the uncleaved and cleaved forms
Protocol: as §1

[3] = target: the molecule itself; assay: non-reducing versus reducing SDS-PAGE and anti-FLAG Western blot; disulfide-linked dimer of the cleaved form
Protocol: as §1

Row | Binder | binding result [1] | binding result [2] | binding result [3]
1 | human DRL90h-FLAG fusion protein, 9.2 kDa molecule not cleaved at the furin cleavage site (other, Expressed in COS-7 cells from pDRL90h-FLAG; It was detected on Western blots after SDS-PAGE; also called human DRL90-FLAG fusion protein) SPILTEKQAKQLLRSRRQDRPSKPGFPDEPMREYMHHLLALEHRAEEQFLEHWLNPHCKPHCDRNRIHPVVDYKDDDDK | binds | binds | –
2 | B1 | – | – | binds
